Source: paper doi:10.1101/507483
Read-outs that look alike come from different tables or passages of the source.

Assays:
[1] = target: TagA^ΔC, N-terminal domain of TagA from Thermoanaerobacter italicus (residues Met1-Gly195) (Thermoanaerobacter italicus); assay: AUC
[2] = target: TagA^ΔC, N-terminal domain of TagA from Thermoanaerobacter italicus (residues Met1-Gly195) (Thermoanaerobacter italicus); assay: AUC; remark: listed apart in the source

- Kd [1]: 7.4 µM
- stoichiometry N [1]: 2
- Kd [2]: 3.5 µM
- stoichiometry N [2]: 2
Substance: TagA^ΔC, N-terminal domain of TagA from Thermoanaerobacter italicus (residues Met1-Gly195) (domain or fragment)
